Measured values reported in patent US20090130105A1 (Biogen, published 2009).
Changes are numbered by the printed parent chain. Names may count otherwise.

B1: MJF018, C06 (VL/GS3/VH) scFv with VL V15N (scFv)
scFv: DIQMTQSPLSLSASNGDRVTITCQASRDIRNYLNWYQQKPGKAPKLLIYDASSLQTGVPSRFGGSGSGTDFSFTIGSLQPEDIATYYCQQFDSLPHTFGQGTKLEIKGGGGSGGGGSGGGGSEVQLLESGGGLVQPGGSLRLSCAASGFTFSIYRMQWVRQAPGKGLEWVSGISPSGGTTWYADSVKGRFTISRDNSKNTLYLQMNSLRAEDTAVYYCARWSGGSGYAFDIWGQGTMVTVSSDDDKSFLEQKLISEEDLNSAVDHHHHHH
notes: Kabat positions
B2: MJF021, C06 (VL/GS3/VH) scFv with VL V15I (scFv)
scFv: B1 scFv with N15I
notes: Kabat positions
B3: MJF015, C06 (VL/GS3/VH) scFv with VH W47F (scFv, name in Kabat numbering)
scFv: B1 scFv with N15V, W169F
notes: Kabat positions
B4: MJF020, C06 (VL/GS3/VH) scFv with VL V15E (scFv)
scFv: B1 scFv with N15E
notes: Kabat positions
B5: MJF016, C06 (VL/GS3/VH) scFv with VL D70E (scFv)
scFv: B1 scFv with N15V, D70E
notes: Kabat positions
B6: MJF024, C06 (VL/GS3/VH) scFv with VL V15A (scFv)
scFv: B1 scFv with N15A
notes: Kabat positions
B7: MJF025, C06 (VL/GS3/VH) scFv with VL V15P (scFv)
scFv: B1 scFv with N15P
notes: Kabat positions
B8: MJF026, C06 (VL/GS3/VH) scFv with VL V15S; VH T110V (scFv, name in Kabat numbering)
scFv: B1 scFv with N15S, T239V
notes: Kabat positions
B9: MJF017, C06 (VL/GS3/VH) scFv with VL T74S (scFv)
scFv: B1 scFv with N15V, T74S
notes: Kabat positions
B10: MJF022, C06 (VL/GS3/VH) scFv with VL V15R (scFv)
scFv: B1 scFv with N15R
notes: Kabat positions
B11: MJF029, C06 (VL/GS3/VH) scFv with VL T20R, R30Y (scFv)
scFv: B1 scFv with N15V, T20R, R30Y
notes: Kabat positions
B12: MJF027, C06 (VL/GS3/VH) scFv with VL Q24K (scFv)
scFv: B1 scFv with N15V, Q24K
notes: Kabat positions
B13: MJF023, C06 (VL/GS3/VH) scFv with VL L11G, V15N (scFv)
scFv: B1 scFv with L11G
notes: Kabat positions
B14: MJF014, C06 (VL/GS3/VH) scFv with VL M4L (scFv)
scFv: B1 scFv with M4L, N15V
notes: Kabat positions
B15: MJF031, C06 (VL/GS3/VH) scFv with VL R30N (scFv)
scFv: B1 scFv with N15V, R30N
notes: Kabat positions
B16: conventional C06 (VL/GS3/VH) scFv (pXWU092) (scFv)
scFv: DIQMTQSPLSLSASVGDRVTITCQASRDIRNYLNWYQQKPGKAPKLLIYDASSLQTGVPSRFGGSGSGTDFSFTIGSLQPEDIATYYCQQFDSLPHTFGQGTKLEIKGGGGSGGGGSGGGGSEVQLLESGGGLVQPGGSLRLSCAASGFTFSIYRMQWVRQAPGKGLEWVSGISPSGGTTWYADSVKGRFTISRDNSKNTLYLQMNSLRAEDTAVYYCARWSGGSGYAFDIWGQGTMVTVSS
notes: also called WT C06 scFv
B17: MJF045, stabilized C06 (I83E) scFv (scFv)
scFv: B16 scFv with I83E
notes: Variant of pXWU092 with VL I83E (Kabat); also called C06 VL I83E scFv

Biological target: T1, human IGF-1R(1-903)-Fc (human, UniProt P08069 31-933)
T1 construct: also called hIGF-1R-Fc; SDWT; not shown: human IgG1 Fc, C-terminal tag
T1 sequence (P08069 31-933): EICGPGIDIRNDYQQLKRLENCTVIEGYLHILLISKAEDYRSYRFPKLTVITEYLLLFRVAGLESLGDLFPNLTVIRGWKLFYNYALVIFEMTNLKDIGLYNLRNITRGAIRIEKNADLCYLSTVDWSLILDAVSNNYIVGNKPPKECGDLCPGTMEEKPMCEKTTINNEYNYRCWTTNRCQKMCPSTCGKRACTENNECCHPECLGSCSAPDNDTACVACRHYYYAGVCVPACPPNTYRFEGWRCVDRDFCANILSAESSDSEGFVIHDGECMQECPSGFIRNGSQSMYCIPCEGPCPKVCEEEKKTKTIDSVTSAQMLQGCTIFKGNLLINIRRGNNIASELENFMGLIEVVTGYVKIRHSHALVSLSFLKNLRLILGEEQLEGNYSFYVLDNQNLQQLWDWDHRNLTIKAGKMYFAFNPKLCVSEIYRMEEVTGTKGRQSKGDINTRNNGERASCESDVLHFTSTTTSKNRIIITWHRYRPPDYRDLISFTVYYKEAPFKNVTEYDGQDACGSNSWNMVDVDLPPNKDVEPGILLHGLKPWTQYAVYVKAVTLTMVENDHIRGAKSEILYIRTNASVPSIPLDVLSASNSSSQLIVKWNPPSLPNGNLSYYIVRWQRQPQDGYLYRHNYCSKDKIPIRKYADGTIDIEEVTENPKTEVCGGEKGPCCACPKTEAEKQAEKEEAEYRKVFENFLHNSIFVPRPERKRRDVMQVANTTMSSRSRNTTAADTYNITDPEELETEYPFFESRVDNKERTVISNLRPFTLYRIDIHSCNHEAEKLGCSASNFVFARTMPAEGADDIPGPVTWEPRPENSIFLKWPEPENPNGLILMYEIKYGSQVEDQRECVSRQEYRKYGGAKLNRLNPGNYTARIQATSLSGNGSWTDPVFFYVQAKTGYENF
Assay: biolayer interferometry (Octet), IGF-1R Fc on Protein A sensors, scFv culture supernatant
Set-up: unit not given here
Excerpt: Individual transformed colonies were picked into deep-well 96 well dishes and processed for screening as described above. […] For off-rate analyses IGF-1R Fc was immobilized onto the surface of Protein A biosensors. […] ScFvs were allowed to bind to immobilized IGF-1R Fc for 300-seconds. Off-rate was subsequently assayed for 600 seconds.

Binder | Kd (1/sec), off-rate as tabulated (XWU092 = 1.00)
B1 | 1.16
B2 | 0.81
B3 | 1.37
B4 | 0.76
B5 | 1.03
B6 | 0.89
B7 | 1.18
B8 | 0.99
B9 | 1.02
B10 | 0.76
B11 | 0.68
B12 | 1.12
B13 | 0.68
B14 | 0.86
B15 | 0.59
B16 | 1
B17 | 1.47
